From patent US20250064951A1, “DENDRITIC POLYELECTROLYTE ZWITTERIONS, JANUS-TYPE CONJUGATE COMPRISING SAME AND USES THEREOF” (ArtProBio Co., Ltd., priority 2023, published 2025)
Ends that are not written are not given here.

Key:
[1] = DLS size, size distribution and zeta potential; format: physicochemical; conditions: for Diameter (nm) in DW / Diameter (nm) in PBS: DLS
HCT116 cells [2] = test: Cytotoxicity, WST-8 assay in HCT116 cells; format: cell-based, human; conditions: 0, 1.25, 2.5, 5, 10 μM, 4 hours
Protocol: The cytotoxicity of the G2 Janus-type dendritic polyelectrolyte zwitterions according to the present disclosure (JDPZ, (+M)2(−M)2 conjugate_1) was analyzed using HCT116 cells (human colon cancer cells). Specifically, HCT116 cells were subcultured in DMEM supplemented with 10% FBS (fetal bovine serum), dispensed into each well at 1×10^4 cells/well, and cultured at 37° C. for 24 hours. The cells were treated with the samples (Example 5-1 and Comparative Examples 1-1 to 1-3) at various concentrations (0, 1.25, 2.5, 5, 10 μM), respectively, and incubated at 37° C. for 4 hours. WST-8 solution was added to the cultured cells, and absorbance was measured at 450 nm with a microplate reader (Perkin-Elmer, USA) 4 hours later.

HCT116 cells [3] = test: Intracellular delivery efficiency in HCT116 cells by flow cytometry; format: cell-based, human; conditions: summary statement, b342
Protocol: To confirm the intracellular delivery efficiency, HCT116 cells were subcultured in DMEM supplemented with 10% FBS (fetal bovine serum), dispensed into each well at 1-3×10^4 cells/well, and cultured at 37° C. for 24 hours. The cells were treated with the (+6)2(−6)2 conjugate_FAM prepared in Example 6-2 at a concentration of 10 μM and incubated at 37° C. for 4 hours. Afterwards, the cells were washed with Dulbecco's phosphate-buffered saline (DPBS), trypsinized, resuspended in DPBS supplemented with 10% cell dissociation buffer (GIBCO) and 1% FBS, and then analyzed using a flow cytometer (BD LSR II SORT flow cytometer, BD Bioscience, USA) for analysis of intracellular fluorescence.

HeLa cells = test: Cytotoxicity, WST-8 assay in HeLa cells; format: cell-based; conditions: 0, 2, 4, 8, 16, 32, 64 and 128 μM, 4 hours
Protocol: Since DPZ contains both polyelectrolytes and zwitterions in a single molecule, it is expected to have non-fouling property and low toxicity, while also having advantageous intracellular delivery efficiency due to its interaction with the cell membrane. Cytotoxicity was analyzed first. HeLa cells were subcultured in DMEM supplemented with 10% FBS (fetal bovine serum), dispensed into each well at 1×10^4 cells/well, and cultured at 37° C. for 24 hours. The cells were treated with the samples (Examples 1-1 to 1-6 or Comparative Examples 3-1 and 3-2) at various concentrations and then cultured at 37° C. for 4 hours. WST-8 solution was added to the cultured cells, and absorbance was measured at 450 nm with a microplate reader (Perkin-Elmer, USA) 4 hours later.
Cytotoxicity was analyzed using HeLa cells. Specifically, HeLa cells were subcultured in DMEM supplemented with 10% FBS (fetal bovine serum), dispensed into each well at 1×10^4 cells/well, and cultured at 37° C. for 24 hours. The cells were treated with the samples (Examples 3-1 to 3-6) at various concentrations and then cultured at 37° C. for 4 hours. WST-8 solution was added to the cultured cells, and absorbance was measured at 450 nm with a microplate reader (Perkin-Elmer, USA) 4 hours later.

yeast rRNA = test: EMSA of non-fouling property for rRNA; format: binding; conditions: 200 ng yeast rRNA; various peptide/RNA (w/w) ratios; room temperature 1 hour
Protocol: It was confirmed through EMSA (electrophoretic mobility shift assay) that the dendrimer structure of the present disclosure has non-fouling property for various genetic materials present in the body when administered in vivo. 200 ng of yeast rRNA (ribosomal RNA) was prepared as a model genetic material and mixed with the Janus-type dendritic polyelectrolyte zwitterion of Example 5-4 (JDPZ ((+6)2(−6)2 conjugate_1)) at various concentration ratios. The mixing ratio was peptide/RNA ratio, wherein the peptide/RNA ratio was peptide/RNA (w/w). After reacting the mixture at room temperature for 1 hour, electrophoresis was performed on a 2% agarose gel at 90 V for 100 minutes. For visualization, the bands were stained with SYBR Gold nucleic acid gel stain (Invitrogen, USA).
The Janus-type dendrimer structure of Comparative Example 1-2 ((+3)2(Ø3)2 conjugate) was used as a control group instead of the JDPZ of Example 5-4 ((+6)2(−6)2 conjugate_1).

BSA = BSA (Bos taurus, UniProt P02769); test: EMSA of non-fouling property for proteins (BSA); format: binding
Description: The mixing ratio was R/B ratio, wherein the R/B ratio was arginine/BSA ratio. […] For visualization, the bands were stained with Coomassie brilliant blue R-250.
The mixing ratio was peptide/BSA ratio, wherein the peptide/BSA ratio was peptide/BSA (w/w). […] For visualization, the bands were stained with Coomassie brilliant blue R-250.

[4] = 1 μg BSA, various peptide/BSA (w/w) ratios, room temperature 1 hour

BSA, sequence (P02769 25-607): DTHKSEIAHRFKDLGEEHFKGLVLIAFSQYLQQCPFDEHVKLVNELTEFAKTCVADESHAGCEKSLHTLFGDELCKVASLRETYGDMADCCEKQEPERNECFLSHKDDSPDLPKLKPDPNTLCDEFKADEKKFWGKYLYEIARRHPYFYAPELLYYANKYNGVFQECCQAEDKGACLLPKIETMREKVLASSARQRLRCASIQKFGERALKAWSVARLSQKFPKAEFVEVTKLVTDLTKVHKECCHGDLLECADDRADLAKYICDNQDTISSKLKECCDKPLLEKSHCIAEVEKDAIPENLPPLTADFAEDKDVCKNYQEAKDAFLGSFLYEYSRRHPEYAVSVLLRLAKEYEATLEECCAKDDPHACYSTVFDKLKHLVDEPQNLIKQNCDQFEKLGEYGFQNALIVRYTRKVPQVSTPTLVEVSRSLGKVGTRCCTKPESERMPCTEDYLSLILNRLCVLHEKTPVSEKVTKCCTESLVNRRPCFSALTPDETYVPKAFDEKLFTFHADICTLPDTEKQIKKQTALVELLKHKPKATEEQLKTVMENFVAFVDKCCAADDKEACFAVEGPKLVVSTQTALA

Molecule | Net charge [1] | Zeta potential (mV) [1] | Diameter (nm) in DW [1] | Diameter (nm) in PBS [1] | cytotoxicity (HCT116 cells [2]) | also measured
CC(=O)NCCCCCCCCCCCC(=O)NCCCCC(NC(=O)CCCCCCCCCCCNC(C)=O)C(=O)NCCCCC(NC(=O)C(CCCCNC(=O)CCCCCCCCCCCNC(C)=O)NC(=O)CCCCCCCCCCCNC(C)=O)C(=O)NCCCCC(NC(=O)C(CCCCNC(=O)C(CCCCNC(=O)[C@H](CCC(=O)O)NC(=O)[C@H](CCC(=O)O)NC(=O)C(CCC(=O)O)NC(C)=O)NC(=O)[C@H](CCCCC(=N)N)NC(=O)[C@H](CCCNC(=N)N)NC(=O)[C@H](CCCNC(=N)N)NC(C)=O)NC(=O)C(CCCCNC(=O)[C@H](CCCNC(=N)N)NC(=O)[C@H](CCCNC(=N)N)NC(=O)[C@H](CCCNC(=N)N)NC(C)=O)NC(=O)[C@H](CCC(=O)O)NC(=O)[C@H](CCC(=O)O)NC(=O)[C@H](CCC(=O)O)NC(C)=O)C(N)=O (stereo partly drawn) [Example 5-1] | 0 | +42.3 mV | 109.8 nm | 75.4 nm | does not exhibit cytotoxicity | –
CC(=O)NCCCCCCCCCCCC(=O)NCCCCC(NC(=O)CCCCCCCCCCCNC(C)=O)C(=O)NCCCCC(NC(=O)C(CCCCNC(=O)CCCCCCCCCCCNC(C)=O)NC(=O)CCCCCCCCCCCNC(C)=O)C(=O)NCCCCC(NC(=O)C(CCCCNC(=O)C(CCCCNC(=O)C(CCCNC(=N)N)NC(=O)C(CCCNC(=N)N)NC(=O)C(CCCNC(=N)N)NC(C)=O)NC(=O)C(CCCNC(=N)N)NC(=O)C(CCCNC(=N)N)NC(=O)C(CCCNC(=N)N)NC(C)=O)NC(=O)C(CCCCNC(=O)C(CCCNC(=N)N)NC(=O)C(CCCNC(=N)N)NC(=O)C(CCCNC(=N)N)NC(C)=O)CC(=O)C(CCCNC(=N)N)NC(=O)C(CCCNC(=N)N)NC(=O)C(CCCNC(=N)N)NC(C)=O)C(N)=O (stereo not drawn) [Comparative Example 1-1] | – | – | – | – | very high toxicity | cellular delivery efficiency (HCT116 cells [3]): high cellular delivery efficiency
Ac-EEEEEEEEEEEERRRRRRRRRRRR-NH2 [Comparative Example 3-2] | – | – | – | – | – | cytotoxicity (HeLa cells): do not cause toxicity in the cells
Comparative Example 3-1: peptide in which cationic and anionic amino acids are linked alternately (Ac-ERERERERERERERERERERERERERER) | – | – | – | – | – | cytotoxicity (HeLa cells): do not cause toxicity in the cells
CC(=O)NCCCCCCCCCCCC(=O)NCCCCC(NC(=O)CCCCCCCCCCCNC(C)=O)C(=O)NCCCCC(NC(=O)C(CCCCNC(=O)CCCCCCCCCCCNC(C)=O)NC(=O)CCCCCCCCCCCNC(C)=O)C(=O)NCCCCC(NC(=O)C(CCCCNC(=O)C(CCCCNC(=O)C(CO)NC(=O)C(CO)NC(=O)C(CO)NC(C)=O)NC(=O)C(CCCNC(=N)N)NC(=O)C(CCCNC(=N)N)NC(=O)C(CCCNC(=N)N)NC(C)=O)NC(=O)C(CCCCNC(=O)C(CO)NC(=O)C(CO)NC(=O)C(CO)NC(C)=O)NC(=O)C(CCCNC(=N)N)NC(=O)C(NCCNC(=N)N)NC(=O)C(CCCNC(=N)N)NC(C)=O)C(N)=O (stereo not drawn) [Comparative Example 1-2, reference compound] | +6 | +52.8 mV | 742.3 nm | 5,688.2 nm | very high toxicity | interaction with rRNA (non-fouling property), EMSA (yeast rRNA): forms a non-specific interaction with rRNA even under the low-concentration rRNA condition; binding to BSA (non-fouling property), EMSA (BSA; [4]): binds easily to BSA; cellular delivery efficiency (HCT116 cells [3]): high cellular delivery efficiency
linear peptide R12: linear peptide with 12 arginines, same number of cationic residues as Example 1-6 (RRRRRRRRRRRR; not fully specified (some residues)) | – | – | – | – | – | binding to BSA (non-fouling property), EMSA (BSA; 0.5 μg BSA, various R/B (arginine/BSA) ratios, room temperature 12 hours): interacts with BSA and induces EMS
CC(=O)NCCCCCCCCCCCC(=O)NCCCCC(NC(=O)CCCCCCCCCCCNC(C)=O)C(=O)NCCCCC(NC(=O)C(CCCCNC(=O)CCCCCCCCCCCNC(C)=O)NC(=O)CCCCCCCCCCCNC(C)=O)C(=O)NCCCCC(NC(=O)C(CCCCNC(=O)C(CCCCNC(=O)[C@H](CCC(=O)O)NC(=O)[C@H](CCC(=O)O)NC(=O)[C@H](CCC(=O)O)NC(=O)[C@H](CCC(=O)O)NC(=O)[C@H](CCC(=O)O)NC(=O)[C@H](CCC(=O)O)NC(C)=O)NC(=O)[C@H](CCCCC(=N)N)NC(=O)[C@H](CCCNC(=N)N)NC(=O)[C@H](CCCNC(=N)N)NC(=O)[C@H](CCCNC(=N)N)NC(=O)[C@H](CCCNC(=N)N)NC(=O)[C@H](CCCNC(=N)N)NC(C)=O)NC(=O)C(CCCCNC(=O)[C@H](CCCNC(=N)N)NC(=O)[C@H](CCCNC(=N)N)NC(=O)[C@H](CCCNC(=N)N)NC(=O)[C@H](CCCNC(=N)N)NC(=O)[C@H](CCCNC(=N)N)NC(=O)[C@H](CCCNC(=N)N)NC(C)=O)NC(=O)[C@H](CCC(=O)O)NC(=O)[C@H](CCC(=O)O)NC(=O)[C@H](CCC(=O)O)NC(=O)[C@H](CCC(=O)O)NC(=O)[C@H](CCC(=O)O)NC(=O)[C@H](CCC(=O)O)NC(C)=O)C(N)=O (stereo partly drawn) [Example 5-4] | 0 | +35.2 mV | 649.0 nm | 128.9 nm | – | interaction with rRNA (non-fouling property), EMSA (yeast rRNA): forms interaction only under high-concentration conditions in which rRNA is present in an amount exceeding 10 times; binding to BSA (non-fouling property), EMSA (BSA; [4]): hardly binds to BSA
